# T1: UGT1A9 (Homo sapiens, UniProt O60656)
# T1 construct: human recombinant UGT1A9
# T1 sequence (O60656 26-530): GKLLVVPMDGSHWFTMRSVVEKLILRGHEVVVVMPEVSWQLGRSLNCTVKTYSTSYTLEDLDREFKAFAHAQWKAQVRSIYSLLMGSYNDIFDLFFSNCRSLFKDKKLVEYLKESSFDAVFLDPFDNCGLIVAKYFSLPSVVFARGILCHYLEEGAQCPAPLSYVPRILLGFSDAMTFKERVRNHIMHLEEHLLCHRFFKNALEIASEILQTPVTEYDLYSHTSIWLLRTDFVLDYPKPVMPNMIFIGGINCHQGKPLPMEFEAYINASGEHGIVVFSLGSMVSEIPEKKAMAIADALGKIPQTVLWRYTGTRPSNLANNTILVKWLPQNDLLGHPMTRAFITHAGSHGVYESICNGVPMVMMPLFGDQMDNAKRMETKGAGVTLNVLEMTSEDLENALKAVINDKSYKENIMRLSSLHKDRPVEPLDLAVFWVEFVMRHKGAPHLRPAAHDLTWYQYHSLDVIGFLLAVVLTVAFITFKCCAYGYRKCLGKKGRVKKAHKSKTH
# B1: UGT1A9 (Homo sapiens) (protein)
# chain: T1 sequence (O60656 26-530)
# Assays:
# UGT1A9 = molecular target: T1, UGT1A9; test: inhibition of PTU glucuronidation by recombinant UGT1A9, HPLC-MS/MS; format: biochemical; settings: read-out: Magnolol IC50
# purified protein = substrate: CCCc1cc(=O)[nH]c(=S)[nH]1; test: purified protein; settings: UDPGA
Molecule,IC50 (UGT1A9) [nM],Km (purified protein) [µM],Vmax (purified protein) [µmol/min/mg]
C=CCc1ccc(O)c(-c2cc(CC=C)ccc2O)c1 [magnolol],1160,,
B1,,15.27 ± 7.73,0.352

# From publication PMC8622909 (Pharmaceuticals, 2021)
